Reference: PMC6639074 (eLife, 2019)

Biological target: T1, GFP-FLAG-STAMBPL1 (human, UniProt Q96FJ0 1-436)
T1 construct: STAMBPL1, human, amplified from FLAG-HA-STAMBPL1; GAGAGA linker between GFP and FLAG; also called GFP-STAMBPL1; recombinant STAMBPL1; source: HEK293T, transfected, purified (FLAG M2 resin, 3X FLAG peptide); MEFs, transfected (relocation imaging); not shown: GFP, N-terminal, kept; FLAG, N-terminal, kept
T1 sequence (looked up): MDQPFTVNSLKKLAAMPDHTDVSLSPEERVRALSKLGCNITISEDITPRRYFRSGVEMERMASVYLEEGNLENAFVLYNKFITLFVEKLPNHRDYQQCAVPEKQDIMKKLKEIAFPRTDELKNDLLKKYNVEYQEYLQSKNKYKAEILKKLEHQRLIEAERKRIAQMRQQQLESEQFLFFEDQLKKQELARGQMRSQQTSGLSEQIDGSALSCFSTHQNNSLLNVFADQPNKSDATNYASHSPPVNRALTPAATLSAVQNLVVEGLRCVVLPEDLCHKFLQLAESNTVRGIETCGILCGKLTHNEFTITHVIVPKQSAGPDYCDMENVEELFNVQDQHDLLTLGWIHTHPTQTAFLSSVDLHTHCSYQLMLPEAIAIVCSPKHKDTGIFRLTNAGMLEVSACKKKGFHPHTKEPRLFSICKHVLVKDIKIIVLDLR
Assay: pull-down; purified GFP-FLAG-STAMBPL1 applied to GST-Rab beads with 100 uM GppNHp or GDP, 4 C, 2 hr, high salt elution, Coomassie stained gel
Settings: both partners purified

B1: GST-Rab2A(Q65L) (natural protein, human, UniProt P61019 1-212, looked up)
chain: MAYAYLFKYIIIGDTGVGKSCLLLQFTDKRFQPVHDLTIGVEFGARMITIDGKQIKLQIWDTAGLESFRSITRSYYRGAAGALLVYDITRRDTFNHLTTWLEDARQHSNSNMVIMLIGNKSDLESRREVKKEEGEAFAREHGLIFMETSAKTASNVEEAFINTAKEIYEKIQEGVFDINNEANGIKIGPQHAATNATHAGNQGGQQAGGGCC
notes: with GppNHp; also called GST-Rab2A QL; recombinant Rab2A
binding result: binds
